{
  "source": "patent US8198236B2",
  "about": "“Methods and compositions for the treatment of cancer” (Washington University, priority 2007, dated 2012)",
  "key": {"[1]": {"assay": "Pharmacokinetics of 125I-labeled Mesd or Mesd peptide, intravenous or subcutaneous", "procedure": "(§1) In experiments shown in FIG. 23, pharmacokinetics of Mesd peptide and Mesd were examined. FIG. 23A: Amount of Mesd in serum following a single dose of protein administration. Mice were dosed at 5, 10, 20 mg/kg of Mesd via i.p. and the serum samples were collected from individual mice at the indicated time points. The levels of Mesd in serum were quantified by comparison to Mesd pure protein with known concentrations in Western blot analysis. Values are the average of triple determinations with S.D. indicated by error bars. […] Samples were obtained by terminal bleed under anesthesia at each of the indicated time points (N=3 animals per time point). Radioactivity was measured using a gamma counter and DPM converted to mass units/mL blood using the specific activity (DPM/mass) of each test substance. Data are plotted as mass U/mL of test substance with standard deviation indicated by error bars."}, "LRP6 [2]": {"biological_target": "T1, LRP6 (Homo sapiens, UniProt O75581)", "T1 construct": "expressed in transfected cells; host or cells: human HT1080 cells, retroviral vector pLNCX2", "T1 sequence (O75581 20-1613)": "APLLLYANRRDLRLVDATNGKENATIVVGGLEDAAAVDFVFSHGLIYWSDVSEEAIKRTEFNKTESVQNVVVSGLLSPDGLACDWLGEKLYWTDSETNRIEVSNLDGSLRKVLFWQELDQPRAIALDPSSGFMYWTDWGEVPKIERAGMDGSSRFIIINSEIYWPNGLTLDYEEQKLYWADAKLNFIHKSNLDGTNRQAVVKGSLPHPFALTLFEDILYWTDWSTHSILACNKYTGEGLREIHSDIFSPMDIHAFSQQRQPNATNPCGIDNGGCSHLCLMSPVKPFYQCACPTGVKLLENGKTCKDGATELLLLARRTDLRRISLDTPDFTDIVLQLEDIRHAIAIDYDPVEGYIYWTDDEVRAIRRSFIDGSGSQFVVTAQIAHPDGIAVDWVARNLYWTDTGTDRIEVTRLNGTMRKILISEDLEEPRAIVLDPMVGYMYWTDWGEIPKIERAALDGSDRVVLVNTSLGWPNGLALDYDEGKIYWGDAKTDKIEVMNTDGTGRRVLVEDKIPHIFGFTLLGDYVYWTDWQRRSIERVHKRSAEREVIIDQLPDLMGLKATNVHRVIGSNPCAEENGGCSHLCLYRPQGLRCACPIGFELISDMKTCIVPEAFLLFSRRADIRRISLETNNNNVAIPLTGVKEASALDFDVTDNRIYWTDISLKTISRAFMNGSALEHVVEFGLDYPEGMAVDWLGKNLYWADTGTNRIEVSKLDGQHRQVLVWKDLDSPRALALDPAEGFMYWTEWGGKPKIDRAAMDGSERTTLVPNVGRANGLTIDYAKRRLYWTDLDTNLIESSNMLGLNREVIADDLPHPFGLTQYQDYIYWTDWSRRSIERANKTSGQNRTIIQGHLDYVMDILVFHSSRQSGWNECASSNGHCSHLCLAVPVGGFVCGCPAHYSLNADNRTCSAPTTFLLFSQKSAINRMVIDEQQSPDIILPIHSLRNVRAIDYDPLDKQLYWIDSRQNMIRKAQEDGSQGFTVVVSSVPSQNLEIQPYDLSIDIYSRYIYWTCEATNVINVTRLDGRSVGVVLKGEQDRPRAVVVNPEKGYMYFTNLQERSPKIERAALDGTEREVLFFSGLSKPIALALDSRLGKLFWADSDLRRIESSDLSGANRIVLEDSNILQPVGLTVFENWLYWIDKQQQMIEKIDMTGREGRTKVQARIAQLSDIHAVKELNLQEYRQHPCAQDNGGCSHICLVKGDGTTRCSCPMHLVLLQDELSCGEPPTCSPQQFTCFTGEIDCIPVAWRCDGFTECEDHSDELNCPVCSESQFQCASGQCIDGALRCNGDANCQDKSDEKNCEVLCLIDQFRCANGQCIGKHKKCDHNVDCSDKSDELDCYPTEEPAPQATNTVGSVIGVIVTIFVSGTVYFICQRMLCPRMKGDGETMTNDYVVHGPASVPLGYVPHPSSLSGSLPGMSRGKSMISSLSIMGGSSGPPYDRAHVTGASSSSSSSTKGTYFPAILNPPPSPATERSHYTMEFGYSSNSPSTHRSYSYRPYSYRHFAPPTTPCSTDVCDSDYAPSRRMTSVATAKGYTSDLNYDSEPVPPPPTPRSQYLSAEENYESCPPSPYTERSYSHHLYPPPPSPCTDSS", "assay": "LRP6-mediated 125I-Mesd degradation in LRP6-transduced HT1080 cells", "format": "cell-based", "conditions": "4 hours at 37° C.", "experimental": "Ligand degradation was performed using the methods as described in Li, Y., et al., J. Biol. Chem. 275: 17187-17194, 2000. Briefly, 2×10^5 cells were seeded into 12-well dishes 1 day prior to assay. Pre-warmed assay buffer (minimal Eagle's medium containing 0.6% BSA with radioligand, 0.6 ml/well) was added to cell monolayers in the absence or the presence of unlabeled 500 nM RAP or 500 nM Mesd, followed by incubation for 4 hours at 37° C. Thereafter, the medium overlying the cell monolayers was removed and proteins were precipitated by addition of BSA to 10 mg/ml and trichloroacetic acid to 20%. Degradation of radioligand was defined as the appearance of radioactive fragments in the overlying medium that were soluble in 20% trichloroacetic acid. Kinetic analysis of endocytosis LRP6-transduced HT1080 cells were plated in 12-well plates at a density of 2×10^5 cells/well and used after overnight culture. Cells were rinsed twice in ice-cold assay buffer (minimal Eagle's medium containing 0.6% BSA), and ^125I-anti-HA IgG was added at 1 nM final concentration in cold assay buffer (0.5 ml/well). The binding of ^125I-anti-HA IgG was carried out at 4° C. for 90 minutes with gentle rocking Unbound ^125I-anti-HA IgG was removed by washing cell monolayers three times with cold assay buffer. Ice-cold stop/strip solution (0.2 M acetic acid, pH 2.6, 0.1 M NaCl) was added to one set of plates without warming up and kept on ice. The remaining plates were then placed in a 37° C. water bath and 0.5 ml assay buffer prewarmed to 37° C. was quickly added to cell monolayers to initiate internalization. After each time point, the plates were quickly placed on ice and the assay buffer was replaced with cold stop/strip solution. ^125I-anti-HA IgG that remained on the cell surface was stripped by incubation of cell monolayers with cold stop/strip solution for a total of 20 minutes (0.75 ml for 10 minutes, twice) and counted. Cell monolayers were then solubilized with low-SDS lysis buffer and counted. […] The fraction of internalized ^125I-anti-HA IgG after each time point was calculated and plotted. […]"}, "[3]": {"assay": "Mesd in serum after a single i.p. dose (Western blot quantification)", "format": "in vivo, mice", "procedure": "as §1"}, "[4]": {"assay": "Side effects on non-tumor tissues of treated mice (H&E staining, x-ray, weight)", "procedure": "Hemotoxylin and eosin (H&E) staining was performed on tumor xenograft tissue, skin and intestine harvested at the end of Mesd treatment.\nFIG. 24D: H&E staining of tail vertebrae treated with PBS, Mesd or Mesd peptide."}, "LRP6 [5]": {"biological_target": "T1, LRP6", "assay": "Cell surface Myc-DKK1 binding and immunodetection on LRP6-transduced HT1080 cells", "conditions": "1 μM Mesd, immunofluorescence", "description": "Human DKK1 cDNA (clone MGC:868, IMAGE:3508222) was obtained from Invitrogen and subcloned into pcDNA3 (EcoRI/XbaI). To facilitate immunodetection, a c-Myc epitope was included at the C-terminus. The integrity of the subcloned DNA sequence was confirmed by DNA sequencing. Human DKK1-conditioned media were produced by transient transfection of HEK293 cells with pcDNADKK1-Myc in serum-free medium, and allowed to bind to LRP6-transduced HT1080 cells and control cells at room temperature for 60 minutes in the absence or presence of 1 μM Mesd. Cells were then fixed in 4% paraformaldehyde, labeled with anti-Myc monoclonal antibody and detected with Alexa-488 goat anti-mouse IgG. The immunofluorescence was detected by a laser-scanning confocal microscope (Olympus Fluoview 500).\nRAP is a receptor antagonist for members of the LDLR family, and is able to inhibit the binding of most known ligands of the LDLR family members. DKK1 is an LRP6-specific ligand and antagonist. […] In these experiments, Serum-free conditioned medium was harvested from HEK293 cells transiently transfected with cDNA for human Myc-DKK1 and allowed to bind to LRP6-transduced HT1080 cells (B,C) and control cells (A) in the absence (A,B) or presence (C) of 1 μM Mesd. Cell-surface-bound Myc-tagged DKK proteins were fixed and detected by immunofluorescence staining with anti-Myc antibody. […]"}},
  "data": [
    {"molecule": "Mesd: Recombinant full-length mouse Mesd expressed in E. coli, N-terminal polyhistidine tail, lacking the signal peptide (protein, left off: small tags and cut ends, Recombinant full-length mouse Mesd expressed in E. coli, N-terminal polyhistidine tail, lacking the signal peptide) ADTPGEATPPPRKKKDIRDYNDADMARLLEQWEKDDDIEEGDLPEHKRPSAPIDFSKLDPGKPESILKMTKKGKTLMMFVTVSGNPTEKETEEITSLWQGSLFNANYDVQRFIVGSDRAIFMLRDGSYAWEIKDFLVSQDRCAEVTLEGQMYPGKGGGSKEKNKTKPEKAKKKEGDRKPRASKEDNRAGSRREDL", "values": [
      {"measurement": "Bioavailability", "setting": "[1]; intravenous (tail vein) or subcutaneous", "value": 60, "unit": "%"},
      {"measurement": "Distribution into tissues", "setting": "[1]; thyroid/parathyroid, liver, kidney, stomach, gastrointestinal tract", "value": "rapid and widespread"},
      {"measurement": "125I-Mesd degradation", "setting": "LRP6 [2]; 5 nM", "value": 320, "unit": "fmoles/mg cell protein"},
      {"measurement": "Inhibition of 125I-Mesd degradation", "setting": "LRP6 [2]; 500 nM unlabeled competitor", "value": "completely"},
      {"measurement": "Absorption after dosing", "setting": "[3]", "value": "rapidly absorbed"},
      {"measurement": "Adverse effect on small intestine (gross examination)", "setting": "[4]; FIG. 17E", "value": "no significant adverse effect"},
      {"measurement": "Architecture of gastrointestinal compartments and skin (H&E)", "setting": "[4]; after 10 treatments", "value": "morphologically normal"},
      {"measurement": "Bone lesions or outgrowths in tail vertebrae", "setting": "[4]; conditions in which antitumor efficacy was achieved", "value": "no significant bone lesions or outgrowths"},
      {"measurement": "General health and body weight of treated mice", "setting": "[4]; mouse, in vivo", "value": "grossly healthy and maintain their weights"},
      {"measurement": "Binding of Myc-DKK1 to LRP6 at the cell surface", "setting": "LRP6 [5]", "value": "completely blocked"}
    ]}
  ]
}
